We go through two molecules from paper PMC11441684, “A suboptimal OCT4-SOX2 binding site facilitates the naïve-state specific function of a Klf4 enhancer”.

Numbering of substitutions follows the chain as printed.

Data set [1] concerns the target OCT4;SOX2 (human;human, UniProt Q01860;P48431 1-360;1-317, |). Put plainly: EMSA; 19 nM OCT4, 16 nM SOX2; high occupancy; 12.5 mM K-Hepes pH 7.6, 50 mM NaCl, 1 mM MgCl2, 10% glycerol, 0.1% NP-40, 0.1 mg/mL BSA, 1 mM DTT, 1 ug/uL poly dG:dC, 2 nM probe, 30 C 15 min; 4% acrylamide gel, 0.5X TGE. Conditions: protein: recombinant;recombinant; tags: 6xHis (pSKB3-6H-TEV);6xHis (pSKB3-6H-TEV); copies: 1;1; label: Cy5 on strand 2 (extended primer S1); blunt. On the technique in general: Mobility shift assays separate free from complexed probe on a gel.

Data set [2] addresses OCT4 (human, UniProt Q01860 1-360). Nature of the data set: EMSA; 19 nM OCT4; OCT4-only band is the majority of shifted DNA in the OCT4 + SOX2 reaction; 12.5 mM K-Hepes pH 7.6, 50 mM NaCl, 1 mM MgCl2, 10% glycerol, 0.1% NP-40, 0.1 mg/mL BSA, 1 mM DTT, 1 ug/uL poly dG:dC, 2 nM probe, 30 C 15 min; 4% acrylamide gel, 0.5X TGE. Conditions: protein: recombinant; tags: 6xHis (pSKB3-6H-TEV); label: Cy5 on strand 2 (extended primer S1); blunt.

Sequence of OCT4 (Q01860 whole entry): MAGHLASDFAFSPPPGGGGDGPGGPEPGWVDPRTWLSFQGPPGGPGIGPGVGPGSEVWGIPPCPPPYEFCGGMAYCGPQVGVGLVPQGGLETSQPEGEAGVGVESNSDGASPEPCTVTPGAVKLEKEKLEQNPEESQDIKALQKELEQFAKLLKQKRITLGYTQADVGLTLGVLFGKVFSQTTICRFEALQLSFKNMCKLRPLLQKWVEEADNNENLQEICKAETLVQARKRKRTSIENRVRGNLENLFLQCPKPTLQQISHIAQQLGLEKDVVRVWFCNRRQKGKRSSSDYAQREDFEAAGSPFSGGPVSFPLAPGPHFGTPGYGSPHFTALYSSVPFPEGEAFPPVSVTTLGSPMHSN
Sequence of OCT4;SOX2 (Q01860 whole entry, chain 1 of 2): as the sequence (Q01860 whole entry) above
Sequence of OCT4;SOX2 (P48431 whole entry, chain 2 of 2): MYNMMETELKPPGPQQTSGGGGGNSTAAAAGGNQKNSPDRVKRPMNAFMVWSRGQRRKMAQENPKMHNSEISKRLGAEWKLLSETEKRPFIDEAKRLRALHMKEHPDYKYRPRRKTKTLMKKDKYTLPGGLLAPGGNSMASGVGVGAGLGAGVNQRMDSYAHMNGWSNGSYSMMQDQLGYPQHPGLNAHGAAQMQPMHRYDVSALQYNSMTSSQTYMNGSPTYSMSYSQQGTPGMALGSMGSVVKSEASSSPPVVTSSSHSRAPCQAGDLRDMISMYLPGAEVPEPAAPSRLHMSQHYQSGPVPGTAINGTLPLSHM

B1: Nanog OS site probe (dsDNA)
DNA 1: GTTACTCTGCAGCTACTTTTGCATTACAATGGCCTTGGTGAGACTGG
DNA 2: CCAGTCTCACCAAGGCCATTGTAATGCAAAAGTAGCTGCAGAGTAAC
On to B1, for which the binding result in data set [1] was “binds”.

B2: Klf4-E1 OS site probe (dsDNA)
DNA 1: B1 DNA 1 with T17C, T25A, A26T, T30A, G31T
DNA 2: B1 DNA 2 with C17A, A18T, T22A, A23T, A31G
For the molecule B2, the binding result in data set [2] is “binds”.
